From article PMC10501187

Target: GABARAP (UniProt O95166)
Assay: GST-GABARAP pull-down from cell lysate
Details: reference: wild type

ORP8 (from UniProt Q9BZF1) S65A
binding against the reference (sites S65): weaker

ORP8 (from UniProt Q9BZF1) T54A
binding against the reference (sites T54): weaker
